Experimental data from patent US8648041 (Novo Nordisk, dated 2014).
Numbered stars: 1 amine (or outer) side, 2 acyl side, 3 side chain; on linkers, the order of the positions; unused ones are H or OH. Square brackets hold non-standard residues; d marks the D form. Side chains are listed from the residue outwards. Ends that are not written are not given here. * marks the point of attachment. 9‑(4-carboxyphenoxy)nonanoyl = O=C(O)c1ccc(OCCCCCCCCC(=O)*)cc1; 8‑(4-carboxyphenoxy)octanoyl = O=C(O)c1ccc(OCCCCCCCC(=O)*)cc1; Malonyl(2,2-Me2,histaminyl) = CC(C)(C(=O)NCCc1cnc[nH]1)C(=O)*; Decanoyl(10-(4-HOOC-PhO)) = O=C(O)c1ccc(OCCCCCCCCCC(=O)*)cc1; γGlu = O=C(O)[C@H](CCC(=O)[*:2])N[*:1]; C14 diacid = O=C(O)CCCCCCCCCCCCC(=O)*; C12 diacid = O=C(O)CCCCCCCCCCC(=O)*; AEEA = NCCOCCOCC(=O)O; Aib = CC(C)(N)C(=O)O

How the values were obtained:
human GLP-1 receptor [1] = target: T1, human GLP-1 receptor (human, UniProt P43220 24-463); assay: SPA, displacement of 125I-GLP-1(7-36)NH2 from membranes with human GLP-1 receptor, 0.005% HSA
T1 construct: whole, on cells; Used as membrane preparations of the transfected hamster (BHK) cell line, not as whole cells; also called hGLP-1/BHK 467-12A membranes
Source text: (§1) A shift in the binding affinity, $IC50$, is an indication that the peptide in question binds to albumin, and thereby a prediction of a potential protracted pharmacokinetic profile of the peptide in question in animal models. Conditions Species (in vitro): Hamster Biological End Point: Receptor Binding Assay Method: SPA Receptor: GLP-1 receptor Cell Line: BHK tk-ts13 Cell Culture and Membrane Purification A stable transfected cell line and a high expressing clone were selected for screening. The cells were grown at 5% CO_2 in DMEM, 10% FCS, 1% Pen/Strep (Penicillin/Streptomycin) and 1.0 mg/ml of the selection marker G418.
(§2) 25 ul (micro liter) of test compounds were added to Optiplate. HSA ("high albumin" experiment containing 2% HSA), or buffer ("low albumin" experiment containing 0.005% HSA), was added (50 ul). 5-10 ug protein/sample was added (50 ul) corresponding to 0.1-0.2 mg protein/ml (to be preferably optimised for each membrane preparation). SPA-particles (Wheatgerm agglutinin SPA beads, Perkin Elmer, #RPNQ0001) were added in an amount of 0.5 mg/well (50 ul). […] The plates were sealed with PlateSealer and incubated for 120 minutes at 30° C. while shaking. The plates were centrifuged (1500 rpm, 10 min) and counted in Topcounter. Assay Buffer: 50 mM HEPES 5 mM EGTA 5 mM MgCl2 0.005% Tween™ 20 pH 7.4 HSA was SIGMA A1653.

human GLP-1 receptor [2] = target: T1, human GLP-1 receptor; assay: SPA, displacement of 125I-GLP-1(7-36)NH2 from membranes with human GLP-1 receptor, 2.0% HSA
Source text: as §1, §2

IC50 (human GLP-1 receptor [1]) [nM] | IC50 (human GLP-1 receptor [2]) [nM] | Binder
< 600 | ≤ 1000 | HXEGTFTSDVSSYLEGQAAKEFIAHLVQGRK (Aib at 8; Lys26 and Lys37 each acylated at the epsilon-amino group with 10-(4-carboxyphenoxy)decanoyl-gammaGlu-OEG-OEG (GLP-1(7-37) numbering, His = 7), also called Chem. 36)
< 600 | ≤ 1000 | HXEGTFTSDVSSYLEGQAAKEFIAHLVQGRK (Aib at 8; Lys26 and Lys37 each acylated at the epsilon-amino group with 11-carboxyundecanoyl-gammaGlu-OEG-OEG (GLP-1(7-37) numbering, His = 7), also called Chem. 40)
< 600 | ≤ 1000 | H[Aib]GGTFTSDVSSYLEGQAAK([AEEA-AEEA-γGlu-Decanoyl(10-(4-HOOC-PhO))])EFIAWLVRGRK([AEEA-AEEA-γGlu-Decanoyl(10-(4-HOOC-PhO))])
< 600 | ≤ 1000 | H[Aib]EGTFTSDVSSYLEGRAAK([AEEA-AEEA-γGlu-Decanoyl(10-(4-HOOC-PhO))])EFIAWLVRGRK([AEEA-AEEA-γGlu-Decanoyl(10-(4-HOOC-PhO))])
< 600 | ≤ 1000 | {Malonyl(2,2-Me2,histaminyl)}-EGTFTSDVSSYLEGQAAK([AEEA-AEEA-γGlu-Decanoyl(10-(4-HOOC-PhO))])EFIAWLVRGRK([AEEA-AEEA-γGlu-Decanoyl(10-(4-HOOC-PhO))])E (also called Chem. 41) [N^9-{2-[2-(1H-Imidazol-4-yl)ethylcarbamoyl]-2-methylpropionyl}, …]
< 600 | ≤ 1000 | {Malonyl(2,2-Me2,histaminyl)}-EGTFTSDVSSYLEGQAAK([AEEA-AEEA-γGlu-Decanoyl(10-(4-HOOC-PhO))])EFIAWLVRGRK([AEEA-AEEA-γGlu-Decanoyl(10-(4-HOOC-PhO))]) (also called Chem. 42)
< 600 | ≤ 1000 | {Malonyl(2,2-Me2,histaminyl)}-EGTFTSDVSSYLEGQAAKEFIAWLVRGRK (not fully specified (residues 18, 29); printed as N^9-{2-[2-(1H-Imidazol-4-yl)-ethylcarbamoyl]-2-methylpropionyl}-N^ε26-{2-[2-(2-{2-[2-(2-{(S)-4-[4-(4-tert-Butylphenyl)butyrylamino]-4-carboxybutyrylamino}ethoxy)ethoxy]acetylamino}ethoxy)ethoxy]acetyl}, N^ε37-{2-[2-(2-{2-[2-(2-{(S)-4-[4-(4-tert-Butylphenyl)butyrylamino]-4-carboxybutyrylamino}ethoxy)ethoxy]acetylamino}ethoxy)ethoxy]acetyl}[Arg^34, Lys^37]GLP-1(9-37)-peptide, also called Chem. 46)
< 600 | ≤ 1000 | XAEGTFTSDVSSYLEGQAAKEFIAWLVRGRK (Imp (imidazopropionic acid, des-amino histidine) at 7; Lys26 and Lys37 each acylated at the epsilon-amino group with 10-(4-carboxyphenoxy)decanoyl-gammaGlu-OEG-OEG (GLP-1(7-37) numbering))
< 600 | ≤ 1000 | HAEGTFTSDVSSYLEGQAAK([AEEA-AEEA-γGlu-Decanoyl(10-(4-HOOC-PhO))])EFIAWLVRGRK([AEEA-AEEA-γGlu-Decanoyl(10-(4-HOOC-PhO))])
< 600 | ≤ 1000 | HAEGTFTSDVSSYLEGQAAK([AEEA-AEEA-γGlu-C12 diacid])EFIAHLVQGRK([AEEA-AEEA-γGlu-C12 diacid]) (also called Chem. 54)
< 600 | ≤ 1000 | HAEGTFTSDVSSYLEGQAAK([AEEA-AEEA-γGlu-C14 diacid])EFIAHLVQGRK([AEEA-AEEA-γGlu-C14 diacid]) (also called Chem. 53)
< 600 | ≤ 1000 | HAEGTFTSDVSSYLEGQAAK([AEEA-AEEA-γGlu-8‑(4-carboxyphenoxy)octanoyl])EFIAWLVRGGK([AEEA-AEEA-γGlu-8‑(4-carboxyphenoxy)octanoyl])
< 600 | ≤ 1000 | HAEGTFTSDVSSYLEGQAAK([AEEA-AEEA-γGlu-Decanoyl(10-(4-HOOC-PhO))])EFIAHLVQGRK([AEEA-AEEA-γGlu-Decanoyl(10-(4-HOOC-PhO))]) (also called Chem. 52)
< 600 | ≤ 1000 | HAQGTFTSDVSSYLEGQAAK([AEEA-AEEA-γGlu-Decanoyl(10-(4-HOOC-PhO))])EFIAWLVRGRK([AEEA-AEEA-γGlu-Decanoyl(10-(4-HOOC-PhO))])
< 600 | ≤ 1000 | HAEGTFTSDVSSYLEGQAAK([AEEA-AEEA-γGlu-Decanoyl(10-(4-HOOC-PhO))])EFIEWLVRGRK([AEEA-AEEA-γGlu-Decanoyl(10-(4-HOOC-PhO))])
< 600 | ≤ 1000 | HAEGTFTSDVSSYLEGQAAK([AEEA-AEEA-γGlu-Decanoyl(10-(4-HOOC-PhO))])EFIAWLVRGGK([AEEA-AEEA-γGlu-Decanoyl(10-(4-HOOC-PhO))])
< 600 | ≤ 1000 | HAEGTFTSDVSSYLEGQAAK([γGlu-AEEA-AEEA-Decanoyl(10-(4-HOOC-PhO))])EFIAHLVQGRK([γGlu-AEEA-AEEA-Decanoyl(10-(4-HOOC-PhO))]) (also called Chem. 55)
< 600 | ≤ 1000 | HAEGTFTSDVSSYLEGQAAK([AEEA-AEEA-γGlu-C14 diacid])EFIAWLVRGRK([AEEA-AEEA-γGlu-C14 diacid])
< 600 | ≤ 1000 | HAEGTFTSDVSSYLEGQAAK([AEEA-AEEA-γGlu-8‑(4-carboxyphenoxy)octanoyl])EFIAWLVRGRK([AEEA-AEEA-γGlu-8‑(4-carboxyphenoxy)octanoyl])
< 600 | ≤ 1000 | {2,2‑dimethyl‑3‑oxo‑3‑(pyridin-2-ylmethylamino)propanoyl}-EGTFTSDVSSYLEGQAAK([AEEA-AEEA-γGlu-Decanoyl(10-(4-HOOC-PhO))])EFIAWLVRGRK([AEEA-AEEA-γGlu-Decanoyl(10-(4-HOOC-PhO))]) (also called Chem. 60) [N{9}-[2,2-dimethyl-3-oxo-3-(pyridin-2-ylmethylamino)propanoyl], …]
< 600 | ≤ 1000 | HAEGTFTSDVSSYLEGQAAK([AEEA-AEEA-γGlu-Decanoyl(10-(4-HOOC-PhO))])EFIAWLVRGRK([AEEA-AEEA-γGlu-Decanoyl(10-(4-HOOC-PhO))])G (the added Gly38 is therefore written as a second piece)
< 600 | ≤ 1000 | HAEGTFTSDVSSYLEGQAAK([AEEA-AEEA-γGlu-Decanoyl(10-(4-HOOC-PhO))])EFIAWLVRGRK([AEEA-AEEA-γGlu-Decanoyl(10-(4-HOOC-PhO))])E (also called Chem. 65)
< 600 | ≤ 1000 | HAEGTFTSDVSSYLEGQAAK([AEEA-AEEA-γGlu-9‑(4-carboxyphenoxy)nonanoyl])EFIAWLVRGRK([AEEA-AEEA-γGlu-9‑(4-carboxyphenoxy)nonanoyl])
< 600 | ≤ 1000 | HAEGTFTSDVSSYLEGQAAK([γGlu-AEEA-AEEA-C14 diacid])EFIAWLVRGRK([γGlu-AEEA-AEEA-C14 diacid])
